Ends that are not written are not given here.
B1: biotinylated HNRNPK peptide P1 (peptide)
peptide: FPMRGRGGFDRMPPGRGGR
modifications: also: biotin, position not given here
B2: biotinylated HNRNPK peptide P1m (peptide)
peptide: FPMRGRGGFDRMPPGRGGR
modifications: also: biotinylated, position not given here
B3: HNRNPK-derived peptide P1m (asymmetrically dimethylated) (peptide)
peptide: FPMRGRGGFDRMPPGRGGR
modifications: also: asymmetrically dimethylated, places not given here

How the values were obtained:
[1] = molecular target: T1, His-RPS19 wt (human (cDNA from K562), UniProt P39019 1-145); experiment: pull-down
[2] = molecular target: T1, His-RPS19 wt; experiment: thermal shift assay

| Binder | binding result [1] | binding result [2] |
| --- | --- | --- |
| B1 | binds |  |
| B2 | binds |  |
| B3 |  | binds |

Source: article PMC8034617 (Nucleic Acids Research, 2021)
